Assay results: the DeepSol protein solubility set

test: soluble on expression in E. coli; label from the status in PepcDB or PDB records

Soluble on expression in E. coli, not soluble:
MLELNFSQTLGTHCLTLNETLPASGITAIFGVSGAGKTSLINAISGLTRPQKGRIALNGRVLHDAENGICLTPEKRRIGYVFQDARLFPHYKVRGNLRYGMAKSMTGQFDKLVSLLGIEALLDRLPGSLSGGEKQRVAIGRALLTAPELLLLDEPLASLDIPRKRELLPYLQRLAREINIPMLYVSHSLDEILHLADKVMVLEDGQVKAFGPLEEVWGSSVMHPWLPKEQQSSILKVSVLEHHPHYAMTALALGDQHLWVNKLNQPLQSTLRIRIQASDVSLVLQPPQQTSIRNVLRAKVANCYDDNGQVEVQLEIGGRTLWARISPWARDELNIKPGLWLYAQVKSVSITA, MGSDKIHHHHHHMSKLDAFIQQAVTAMPISGTSLIASLYGDALLQRGGEVWLGSVAALLEGLGFGERFVRTALFRLNKEEWLDVVRIGRRSFYRLSDKGLRLTRRAEHKIYRASAPEWDGTWLLLLSEGLEKNVLADVKKQLLWQGFGALAPSLLASPSQKLADVQSLLHEAGVAENVICFEAHSPLALSRAALRDRVEECWHLTEQNEMYEAFIALFRPLLPLLRDSEPSELTPERCFQIQLLLIHFYRRVVLKDPLLPEELLPAHWAGQTARQLCINIYQRVSPGALAFVSEKGESSVGELPAPGPLYYQRFGGLPGA, MLPDSSVRLNKYISESGICSRREADRYIEQGNVFLNGKRATIGDQVKPGDIVKVNGQLIEPREAEDLVLIALNKPVGIVSTTEDGERDNIVDFVNHSKRVFPIGRLDKDSQGLIFLTNHGDLVNKILRAGNDHEKEYLVTVDKPITDEFIRGMGAGVPILGTVTKKCKVKKEAPFVFRITLVQGLNRQIRRMCEHFGYEVKKLERTRIMNVSLSGIPLGEWRDLTDDELIDLFKLIENSSSEAKPKAKAKPKTAGIKRPVVKMEKTAEKGGRPASNGKRFTSPGRKKKGR, MSLTGREKNPSLTAKELEGGLLIVDEMSMVDTWLANTLLKAIPTNMQVIFVGDKDQLPSVGPGQVLHDLLQINEIPKCELNEIYRQGDGSSIIPLAHEIKEGKLPADFQKNQKDRSFFASDIGHIEEYIRQIVTKAKAKGFTPQDIQVLAPMYRGAAGIDALNKMMQEIFNPNDGKKKEVKWNDTVYRIGDKVLQLVNTPELNVFNGDMGEIVGITLAKDSEDKVDELVLQFDNNEVTYKRNEWNKITLSYCCSIHKAQGSEFRMVLLPMVHQYSRMLQRNLLYTAVTRSKELLILLGEVSAFETCVKNESASRMTMLKERIVNAEQEGHHHHHH, MGSDKIHHHHHHVSTAVSTPPTRLQCPICGSERFGDFRSRVNVRCSGCGSFERSRLLWLVLSQLELEATGRPFFHVAPEIGIAKLLHARLGERYRAFDFSPDIYAKAKIPVGRLDLCSDLSGMATGSVGGFCHVHVLEHVRCNAALVLQQINRVLAPGGYHVFGVPFWSRQYREDLSSELTDADRLSRFGHEDHVRSFGDQDFTVMFGGAFEGMEAIPLSRLIEVEAAARCNIPPRALTLNNSHSLFVYRKPIP, MGSDKIHHHHHHMNIEKTRFCINRKIAPGLSIEAFFRLVKRLEFNKVELRNDMPSGSVTDDLNYNQVRNLAEKYGLEIVTINAVYPFNQLTEEVVKKTEGLLRDAQGVGARALVLCPLNDGTIVPPEVTVEAIKRLSDLFARYDIQGLVEPLGFRVSSLRSAVWAQQLIREAGSPFKVLLDTFHHHLYEEAEKEFASRIDISAIGLVHLSGVEDTRPTEALADEQRIMLSEKDVMQNYQQVQRLENMGYRGIYAFEPFSSQLASWSEAEIEEQINRSVSLLLQ, MKIDRLKTDLAKAREKAAEWQARVRDLEKQITEQENLEILQVVRSVAASPEELRGLLDMIRGAKMPMAGTARTFENMDKEEI, MVHNFRNDITVDWCPGCGDFGILTALTSALSELNLGSHDVAIISGIGCSGKTPHYVNAAGAHTLHGRAIPVAVGVKLTNPHLKVIVTGGDGDLMSIGAGHLVAEGRRNSGITVLMYDNAVYGLTKGQAAPTLKLGVQTKSLARPNIYDAINPIMLAISSGYSFVARGFSFEIAHLKNIIKQAIMFPGSSFIDILQPCPTYNNINTMDWYKKRVYKLDDDKSWDPVITENDPKAEEKYNKAIEKSFEWGDKIPIGVFYVNKKVPPFTERLKQYVDNYEQIPPAVQDVSTEDGKPILDPFETFKDKI, MAHHHHHHMTSGYSSYAGASGSGHERFTRILVVGEASVGKTLLIRRLCDHIFGDTSITSTDEGSAPESPYQSQSAVADDDLGPEWGPTVGIAVDALKRSTTVLEDTVTMPNLAMSTPYDTAAVARYTAPSCSLHSGENGNYPHCSVYDTPCSTSGYGRSNSVLQYRGQGFVGSNTSFALLHQLTSASPPRRQTVLQTVEFHELGGTHGYRDVARLLLRNIHYDGVMFVYHRRSLTSTLYLKEWYRWIRSVFSASPDVGSHYGAEAKKPVKCSKKMPRFMLVGTQLPGDELPAAAAGLTKAAAETLHMASGAISDETLLDGNLEVKLRALQSPQTLTQRRGVRHALSKVFRRLAWPYHMWWCVSHPFFLLSKQYQEELGPRSRLGACGSRVVERFVWLFYQAEQALLYVMAVILFGPYQEAVVLGHSRPKQTLEEMLKDELCVSQAHVCRLESNISLQSSLDDMVAFFDILLRQDAPDEGR, MTSGTSVINDKVLQYETFISEVLRRDLQKVLEQRDAVYEKIAQYLQLKNTIQSIQESGSKELKTDVDLGCNFYVQAHVPDASRIYVAVGYGFFVEFTHAEALKFIEKKTNQLTEYTEVLTKDAAKIKANIRMVLEGLRELQGLKDLPEDRRREVF, MGSDKIHHHHHHMWSFKSMFNTPEDPEKDAYEFYGKVQPGITTPTQKTCNFVALDLKSKDRDAIKAMFKKWTVMADRMMDGDTVGKTSNNPLMPPVDTGESIGLGASKLTITFGISKSLMKKIGLSSKIPDAFKDLPHFPNDQLIDDYSDGDIMIQACSNDSQVSFHAVHNLVRPFRDIVKVRWAQSGFISAKGKETPRNLMAFKDGTINPRKSNQLKDYVFIDDGWAKHGTYCVVRRIQIHIETWDRTALEEQEATFGRKRHSGAPLTGGKEFDEIDLKAKDSHGEYIIDKDAHTRLAKEANTSILRRAFNYVDGTDDRTGNFETGLLFIAFQKATKQFIDIQNNLGSNDKLNEYITHRGSASFLVLPGVSKGGYLGETLFD, MGSDKIHHHHHHMKPRKQDEKILSDQYSYFEPIISDSCDIKFDGDKRRIGSIFISHEEICFIRKEEDYIFKISLSDVVDYNTVVTIWKNQASLTLNDNRKITFYFVTNSPLTGFISILKTYMQLSRNKETIIPDDNLLINDDDEQTKVEIFDVVGLNYEGRRKELKKLIKKMKTNDAFFFLYSDLKGNELKEELLYEDKVYEIPDYEVIPGVFLQKEPDNPYDENAIKVMISNEYSEFHVGYVPREYASRLVNYIEDTVSCNAYINGGKYKTLDYLEEKIVTKESDYGLRIHVEYKV, SLGRQVYNFNPGWRFFKGDIRGAEAVNFDDRSWEVVSTPHTVELMPAEGSGCRNYQGPAWYRKHFVVPTATKGQRVLLHFEAAMGKQVLYLNGKRVQEHLGGYLPFTLDLTANGVQAGDSCLLAVYTDNSNDKSYPPGKPQYTLDFAYHGGIYRDVWMIAKSPVAITDAIDSRTVGGGGVFVHFDKISEKSAQVYVETEIQNDNTRSESVTIETTLTDAEGNVIKRTSGKLSLNSGEKKSIRQQMEVRNPKLWSPDAPYLYRVQSRIKKGNRSIDGGTTRIGIRLAEFRGKEGFWLNGKPFGQLVGANRHQDFAYVGNALPNSQQWRDAKRLRDAGCTIIRVAHYPQDPSFMDACDELGLFVIVATPGWQYWNKDPKFGELVHQNTREMIRRDRNHPSVLMWEPILNETRYPLDFALKALEITKEEYPYPGRPIAAADVHSAGVKEHYDVVYGWPGDDEKEDKPEQCIFTREFGENVDDWYAHNNNNRASRSWGERPLLIQALSLAKSYDEMYRTTGQFIGGTQWHPFDHQRGYHPDPYWGGIYDAFRQKKYAYEMFRSQSPASLQHPLAECGPMIFLAHEMSQFSDKDVVVFSNCDSIRLSIYDGTKTWTKPVVHAKGHMPNAPVIFENVWDFWEARGYSYTQKNWQKVNMVAEGIIDGKVVCTQKKMPSRRSTKLRLYADTQKVNLVADGSDFIVVVAEVTDDSGNVRRLAKENIVFTVEGEGEIIGDARIGANPRAVEFGSAPLLIRSTRKAGKIKVKAHVQFEGTQAPTAAEMEFESVPAELPFCYDEKEG, MSLSSNRGVVYIGPGKVEVQDIADPKLEAPDRRKIAHGVILKVVSTNICGSDQHMVRGRTTAEPGLILGHEITGEVIEKGADVEMLEIGDIVSVPFNVACGRCRCCREGDTGVCLTVNPSRAGGAYGYVDMGGWIGGQARYVMVPYADFNLLKFPDRDRAMAKIRDLTMLSDILPTGFHGAWKAGVGVGSVVYVAGAGPVGLAAAASARILGAAVVMVGDFNKERLEHARKVGFEPVDLSKGDDLPEMIAQITGTPEVDAAIDAVGFEARGHSGGEQPAIVLNQMMQITRAAGQIGIPGLYVTEDPGAVDDAARHGSLSMRFGLGWAKAQSFHTGQTPVLKYNRQLMQAILHDRLPIADIVNATVIPLDQAVQGYESFDRGVAKKFVLDPHGMLAAEGHHHHHH

Soluble on expression in E. coli, soluble:
MNTKKEIKFIEEIKGLVPKKLGKIYTSSIIEKDSKRLTINLKKVDALPKCGLIGAPDVCVKITLTQGAKTQTKSSRVIKNTCSAVYNEAVMFLCGTSKNDLAQTSIVISVHDAQRTCTGDDTIGCAYLGIGAVDKSEIDQWKGTTEHLGKEYKGNHTLKAPITAPPVHVAEANDDVAADDDD, MANPTVIKLQDGNVMPQLGLGVWQASNEEVITAIQKALEVGYRSIDTAAAYKNEEGVGKALKNASVNREELFITTKLWNDDHKRPREALLDSLKKLQLDYIDLYLMHWPVPAIDHYVEAWKGMIELQKEGLIKSIGVCNFQIHHLQRLIDETGVTPVINQIELHPLMQQRQLHAWNATHKIQTESWSPLAQGGKGVFDQKVIRDLADKYGKTPAQIVIRWHLDSGLVVIPKSVTPSRIAENFDVWDFRLDKDELGEIAKLDQGKRLGPDPDQFGG, MSLHEYELNQDLLAENKRLAEKNREALRESGTVAVNIMGAIGSGKTLLIERTIERIGNEVKIGAMLGDVVSKADYERVRRFGIKAEAISTGKECHLDAHMIYHRLKKFSDCDLLLIENVGNLICPVDFDLGENYRVVMVSVTEGDDVVEKHPEIFRVADLIVINKVALAEAVGADVEKMKADAKLINPRAKIIEMDLKTGKGFEEWIDFLRGILNVHSDSGQNEGGSHHHHHH, MSLNLDFELNLTQQQKLVMTQQMQMSIKLLQMSNMELNEYIRSEIEENPLLDGKEVIKNDEYQSEMSKVDYKEFIKYLDFDNYTHENYSYRSEEEEVSPFNFIGSKKSFTEYLLDQLREISIDSETRHICEYIIENLDRDGYLRDSLEDIGMAVHKELKSVQNALNVVQSLEPIGVGARNLAECLKLQIYVRNVNDTKLIEIIDKHLGNIAENKYGVIAKELNITPKEAQEYGDYIKKLEPKPSRGFFTGDEVKYVVPDAFIRKIDDDFYVIMNDSSIPKLSINNTYKNILNTENDKKDVDYVKEKLNSAMFLLKSIEQRKTTLYEVLNEILRYQKAYFVGKTNYLRPMTLKDISEKLGMHESTISRAIREKYVYIDTKGLVKIRDMFTTGIASAYSVSEDKKDMSTQKIKNEIRDLIEKENKKSPLSDQKLSEILKEKGMNISRRTVAKYREEIGIKSSAKRKRYEGHHHHHH, MEDMYDSFAALSASESEYRIIYEEKNGSELIVLGPHGGRIEPGVSELVRAFSDRCSIYLFEGLKQRNNRSLHLTSIRFDEPLALEKVNDHHYALAFHGYYDPKIPHTLVGGADRKKAKLICERLNEAGFSAELTNEKDRLAGVHPNNIVNRTKREMGLQLEVSTAQRNALFRNFGCRDKSYIQNDLFDRYVEAVKLGFYTLEHHHHHH
